Experimental findings from patent publication US20250289897A1 (Eli Lilly, published 2025) are described below.

One may read the EC50 (read off the curve) as the concentration giving half of the maximal effect.

Numbering of substitutions follows the chain as printed.

Assay [1] deals with T1, human LEPR, full length, on HEK293-STAT3Luc-hLepR1 cells (Homo sapiens, UniProt P48357 22-1165).
T1 sequence: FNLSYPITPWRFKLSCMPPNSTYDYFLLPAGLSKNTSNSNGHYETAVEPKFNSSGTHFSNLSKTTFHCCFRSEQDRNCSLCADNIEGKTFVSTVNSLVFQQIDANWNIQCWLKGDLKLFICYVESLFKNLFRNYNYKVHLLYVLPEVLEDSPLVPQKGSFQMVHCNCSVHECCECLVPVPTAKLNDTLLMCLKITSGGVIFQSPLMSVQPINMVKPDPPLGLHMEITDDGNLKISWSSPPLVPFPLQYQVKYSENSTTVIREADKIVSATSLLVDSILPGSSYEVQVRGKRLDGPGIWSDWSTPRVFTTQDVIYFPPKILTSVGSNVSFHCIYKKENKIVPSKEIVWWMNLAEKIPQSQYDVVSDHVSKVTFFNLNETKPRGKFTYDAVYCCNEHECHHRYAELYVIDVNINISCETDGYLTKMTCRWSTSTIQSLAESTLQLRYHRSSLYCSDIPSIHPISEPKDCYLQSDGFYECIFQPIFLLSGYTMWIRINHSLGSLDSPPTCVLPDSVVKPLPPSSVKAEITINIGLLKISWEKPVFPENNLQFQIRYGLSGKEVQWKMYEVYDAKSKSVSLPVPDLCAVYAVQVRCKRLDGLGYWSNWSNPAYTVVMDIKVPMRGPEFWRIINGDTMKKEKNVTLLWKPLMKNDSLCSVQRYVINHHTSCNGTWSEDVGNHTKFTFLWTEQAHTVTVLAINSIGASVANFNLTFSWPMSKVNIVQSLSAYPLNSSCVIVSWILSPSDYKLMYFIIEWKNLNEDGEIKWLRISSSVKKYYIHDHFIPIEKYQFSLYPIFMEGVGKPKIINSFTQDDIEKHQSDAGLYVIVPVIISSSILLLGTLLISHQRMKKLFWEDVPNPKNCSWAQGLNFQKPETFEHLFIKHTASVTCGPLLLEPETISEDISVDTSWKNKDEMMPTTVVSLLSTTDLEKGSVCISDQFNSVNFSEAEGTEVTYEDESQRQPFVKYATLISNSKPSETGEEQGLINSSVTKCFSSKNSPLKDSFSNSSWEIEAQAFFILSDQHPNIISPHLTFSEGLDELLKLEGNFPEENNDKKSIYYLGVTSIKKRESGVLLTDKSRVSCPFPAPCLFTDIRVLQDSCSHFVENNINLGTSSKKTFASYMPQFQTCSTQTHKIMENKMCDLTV
The assay can be described thus: cell-based or functional assay.

The target in assay [2] is T2, Recombinant LEPR extracellular domain fused to hIgG1-Fc (human LEPR ECD-TEV-Fc) (human).
T2 construct: The entry holds ECD, TEV site, human IgG1 Fc and a His tag in one chain; also called LEPR-Fc; hLEPR-TEV-hIgG1Fc
The assay can be described thus: ELISA, plate coated with human LEPR ECD (SEQ ID NO:30) at 2 ug/mL, antibody titrated 1:3 from 50 ug/mL, goat anti-human kappa AP detection, OD560. (In general: An ELISA detects its analyte on a solid surface through an enzyme-linked reagent.)

The target in the next assay is T3, Rat LEPR-ECD-His (rat, UniProt Q62959 22-839).
T3 sequence: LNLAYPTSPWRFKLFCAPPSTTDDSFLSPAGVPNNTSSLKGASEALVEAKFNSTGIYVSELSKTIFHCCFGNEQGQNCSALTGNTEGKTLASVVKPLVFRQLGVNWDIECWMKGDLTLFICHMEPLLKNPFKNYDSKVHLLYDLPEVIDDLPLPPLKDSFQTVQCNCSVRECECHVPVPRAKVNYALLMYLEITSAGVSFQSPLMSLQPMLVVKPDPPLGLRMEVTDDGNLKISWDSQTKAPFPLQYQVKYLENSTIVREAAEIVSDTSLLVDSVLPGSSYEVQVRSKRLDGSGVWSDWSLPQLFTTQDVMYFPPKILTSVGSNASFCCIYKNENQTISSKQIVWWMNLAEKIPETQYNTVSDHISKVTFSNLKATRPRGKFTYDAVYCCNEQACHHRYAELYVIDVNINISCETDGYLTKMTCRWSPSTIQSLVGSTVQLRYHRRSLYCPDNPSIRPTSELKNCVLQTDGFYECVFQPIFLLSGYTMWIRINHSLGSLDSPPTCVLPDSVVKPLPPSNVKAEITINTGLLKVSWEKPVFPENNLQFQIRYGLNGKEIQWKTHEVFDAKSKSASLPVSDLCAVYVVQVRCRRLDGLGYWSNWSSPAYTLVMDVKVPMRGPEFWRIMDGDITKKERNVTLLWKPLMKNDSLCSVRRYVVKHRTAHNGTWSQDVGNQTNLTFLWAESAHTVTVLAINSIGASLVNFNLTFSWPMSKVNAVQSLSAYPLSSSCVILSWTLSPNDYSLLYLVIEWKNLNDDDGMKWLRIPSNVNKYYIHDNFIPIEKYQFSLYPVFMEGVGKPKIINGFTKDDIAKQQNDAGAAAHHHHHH
In words: SPR (Biacore T200), antibody captured on Protein A/G chip, n = 1. In general terms: In SPR one partner is held on a chip, and binding of the other changes the refractive index at the surface.

Assay [3] concerns the target T1, human LEPR, full length, on …. In words: cell-based or functional assay. This is another data set of the same source.
The target is the same in assay [4]. The assay can be described thus: flow cytometry on live HEK293-STAT3Luc-hLepR1 cells, AF647 anti-human IgG; average of 4 runs. In general terms: A flow cytometer gives signals particle by particle.
Assay [5] concerns the target T4, cynomolgus monkey LEPR, full length, on HEK293-STAT3Luc-cmLepR2 cells (Macaca fascicularis).
T4 construct: whole, on cells; also called cyno-LEPR; Macaca fascicularis LEPR
The assay can be described thus: flow cytometry on live HEK293-STAT3Luc-cmLepR2 cells, AF647 anti-human IgG; average of 4 runs.

B1: Antibody A (antibody, human IgG1, kappa, L234A L235A)
heavy: EVQLLESGGGLVQPGGSLRLSCAASGFTFSSFAMSWVRQAPGKGLEWVSAISGSGGSTYSADSVRGRFTISRDNSKNTLYLQMNSLRAEDTAVYYCAKDQGDWDFLFDYWGQGTLVTVSSASTKGPSVFPLAPSSKSTSGGTAALGCLVKDYFPEPVTVSWNSGALTSGVHTFPAVLQSSGLYSLSSVVTVPSSSLGTQTYICNVNHKPSNTKVDKRVEPKSCDKTHTCPPCPAPEAAGGPSVFLFPPKPKDTLYITREPEVTCVVVSVSHEDPEVKFNWYVDGVEVHNAKTKPREEQYNSTYRVVSVLTVLHQDWLNGKEYKCKVSNKALPAPIEKTISKAKGQPREPQVYTLPPSREEMTKNQVSLTCLVKGFYPSDIAVEWESNGQPENNYKTTPPVLDSDGSFFLYSKLTVDKSRWQQGNVFSCSVMHEALHNHYTQKSLSLSPGK
light: DIQMTQSPSFLSASVGDRVTITCRASQGISSSLAWYQQKPGKAPKLLIYTASTLQSGVPSRFSGSGSGTEFTLTISSLQPEDFATYYCQQLIYYPFTFGQGTKVEIKRTVAAPSVFIFPPSDEQLKSGTASVVCLLNNFYPREAKVQWKVDNALQSGNSQESVTEQDSKDSTYSLSSTLTLSKADYEKHKVYACEVTHQGLSSPVTKSFNRGEC
notes: IgG1 mAb
Take B1: in assay [1], the “EC50 (nM), pSTAT3 AlphaLISA, after pre-exposure to 30 nM Antibody A and wash-out” value is 0.36 nM; the “EC50 (nM), pSTAT3 AlphaLISA, vehicle-exposed cells” value (“EC50 (nM) … vehicle-exposed cells” below) worked out at 0.331 nM; the “Top (%), pSTAT3 AlphaLISA against 30 nM leptin, vehicle-exposed cells” value (shortened to “Top (%), pSTAT3 AlphaLISA”) was 68.9%. In assay [2], the half-maximal effective concentration (EC50 (read off the curve)) is roughly 0.06 µg/mL. Moreover, the binding result with Rat LEPR-ECD-His is recorded as “no binding (tested: LEPR-ECD tested up to 1000 nM)”. The “Maximum RLU, pERK1/2 AlphaLISA (baseline 29762.5)” value (shortened to “Maximum RLU, pERK1/2 AlphaLISA”) in assay [3] came to 86000 RLU. Also, in assay [4], the “Bottom (gMFI)” value was 131 gMFI and the “Top (gMFI)” value amounted to 2460 gMFI. Moreover, in assay [5], the “Bottom (gMFI)” value is 254 gMFI and the “Top (gMFI)” value came out at 12100 gMFI.

B2: Antibody B (antibody, human IgG1, kappa, L234A L235A, V domains shown)
VH: EVQLLESGGGLVQPGGSLRLSCAASGFTFSSFAMSWVRQAPGKGLEWVSAISGSGGSTYSADSVRGRFTISRDNSKNTLYLQMNSLRAEDTAVYYCAKDQGDWDFLFDYWGQGTLVTVSS
VL: DIQMTQSPSFLSASVGDRVTITCRVSQGISSSLAWYQQKPGKAPKLLIYTASTLQSGVPSRFSGSGSGTEFTLTISSLQPEDFATYYCQQLNYYPFTFGQGTKVEIKR
As to B2, in assay [1], the “EC50 (nM), pSTAT3 AlphaLISA, after pre-exposure to 30 nM Antibody B and wash-out” value was 1.06 nM; the “EC50 (nM) … vehicle-exposed cells” value came out at 0.986 nM; the “Top (%), pSTAT3 AlphaLISA” value was 70.5%. Besides, in assay [2], the concentration for a half-maximal effect (EC50 (read off the curve)) is roughly 0.08 µg/mL. Besides, the binding result with Rat LEPR-ECD-His is recorded as “no binding (tested: LEPR-ECD tested up to 1000 nM)”. Besides, the “Maximum RLU, pERK1/2 AlphaLISA” value in assay [3] was found to be 83400 RLU. Moreover, in assay [4], the “Bottom (gMFI)” value is 123 gMFI and the “Top (gMFI)” value was 2940 gMFI. Also, in assay [5], the “Bottom (gMFI)” value stood at 243 gMFI and the “Top (gMFI)” value is 12100 gMFI.

B3: Antibody C (antibody, human IgG1, kappa, L234A L235A, V domains shown)
VH: B2 VH
VL: B2 VL with V25A, T97S
Regarding B3, in assay [1], the “EC50 (nM), pSTAT3 AlphaLISA, after pre-exposure to 30 nM Antibody C and wash-out” value amounted to 1.14 nM; the “EC50 (nM) … vehicle-exposed cells” value was determined as 1.04 nM; the “Top (%), pSTAT3 AlphaLISA” value was determined as 71.7%. In assay [2], the 50% effective concentration (EC50 (read off the curve)) was roughly 0.07 µg/mL. Moreover, in the assay with Rat LEPR-ECD-His, the binding result is “no binding (tested: LEPR-ECD tested up to 1000 nM)”. Also, the “Maximum RLU, pERK1/2 AlphaLISA” value in assay [3] amounted to 87000 RLU. Besides, in assay [4], the “Bottom (gMFI)” value turned out to be 144 gMFI and the “Top (gMFI)” value was determined as 1850 gMFI. In assay [5], the “Bottom (gMFI)” value came to 214 gMFI and the “Top (gMFI)” value amounted to 10800 gMFI.
